In the supplement of paper PMC11246515:
± gives the standard deviation of the averaged measurements.

Experiment: total protein half-life in vivo (active degradation + dilution); higher = more stable protein
[1] = E. coli NCM3722 delta-clpP delta-lon delta-hslV, growth: N-lim chemostat, doubling time 6 h
[2] = E. coli NCM3722 delta-clpP, growth: N-lim chemostat, doubling time 6 h
[3] = E. coli NCM3722 delta-hslV, growth: N-lim chemostat, doubling time 6 h
[4] = E. coli NCM3722 delta-lon, growth: N-lim chemostat, doubling time 6 h
[5] = E. coli NCM3722 delta-smpB, growth: N-lim chemostat, doubling time 6 h
[6] = wild type E. coli NCM3722, growth: C-lim chemostat, doubling time 3 h
[7] = wild type E. coli NCM3722, growth: C-lim chemostat, doubling time 6 h
[8] = wild type E. coli NCM3722, growth: C-lim chemostat, doubling time 12 h
[9] = wild type E. coli NCM3722, growth: N-lim chemostat, doubling time 6 h
[10] = wild type E. coli NCM3722, growth: P-lim chemostat, doubling time 6 h
[11] = wild type E. coli NCM3722, growth: P-lim chemostat, doubling time 12 h
[12] = wild type E. coli NCM3722, growth: N-lim chemostat, doubling time 12 h

| Sequence | total protein half-life in vivo [1] [h] | total protein half-life in vivo [2] [h] | total protein half-life in vivo [3] [h] | total protein half-life in vivo [4] [h] | total protein half-life in vivo [5] [h] | total protein half-life in vivo [6] [h] | total protein half-life in vivo [7] [h] | total protein half-life in vivo [8] [h] | total protein half-life in vivo [9] [h] | total protein half-life in vivo [10] [h] | total protein half-life in vivo [11] [h] | total protein half-life in vivo [12] [h] |
| --- | --- | --- | --- | --- | --- | --- | --- | --- | --- | --- | --- | --- |
| MFPPMWRRLIYHPDINYALRQTLVLCLPVAVGLMLGELRFGLLFSLVPACCNIAGLDTPHKRFFKRLIIGASLFATCSLLTQLLLAKDVPLPFLLTGLTLVLGVTAELGPLHAKLLPASLLAAIFTLSLAGYMPVWEPLLIYALGTLWYGLFNWFWFWIWREQPLRESLSLLYRELADYCEAKYSLLTQHTDPEKALPPLLVRQQKAVDLITQCYQQMHMLSAQNNTDYKRMLRIFQEALDLQEHISVSLHQPEEVQKLVERSHAEEVIRWNAQTVAARLRVLADDILYHRLPTRFTMEKQIGALEKIARQHPDNPVGQFCYWHFSRIARVLRTQKPLYARDLLADKQRRMPLLPALKSYLSLKSPALRNAGRLSVMLSVASLMGTALHLPKSYWILMTVLLVTQNGYGATRLRIVNRSVGTVVGLIIAGVALHFKIPEGYTLTLMLITTLASYLILRKNYGWATVGFTITAVYTLQLLWLNGEQYILPRLIDTIIGCLIAFGGTVWLWPQWQSGLLRKNAHDALEAYQEAIRLILSEDPQPTPLAWQRMRVNQAHNTLYNSLNQAMQEPAFNSHYLADMKLWVTHSQFIVEHINAMTTLAREHRALPPELAQEYLQSCEIAIQRCQQRLEYDEPGSSGDANIMDAPEMQPHEGAAGTLEQHLQRVIGHLNTMHTISSMAWRQRPHHGIWLSRKLRDSKA | 6.2 ± 0.17 | 6.9 | 4.97 ± 0.47 | 5.47 ± 0.38 | 5.02 ± 0.33 | > 4 | 5.87 | 13.4 ± 0.3 | 6.05 ± 0.55 | 6.24 ± 0.091 | 12.2 ± 0.44 |  |
| MTMPTNQCPWRMQVHHITQETPDVWTISLICHDYYPYRAGQYALVSVRNSAETLRAYTISSTPGVSEYITLTVRRIDDGVGSQWLTRDVKRGDYLWLSDAMGEFTCDDKAEDKFLLLAAGCGVTPIMSMRRWLAKNRPQADVRVIYNVRTPQDVIFADEWRNYPVTLVAENNVTEGFIAGRLTRELLAGVPDLASRTVMTCGPAPYMDWVEQEVKALGVTRFFKEKFFTPVAEAATSGLKFTKLQPAREFYAPVGTTLLEALESNNVPVVAACRAGVCGCCKTKVVSGEYTVSSTMTLTDAEIAEGYVLACSCHPQGDLVLA | 3.27 ± 0.63 |  |  |  |  |  |  |  |  |  |  |  |
| MRIEVTIAKTSPLPAGAIDALAGELSRRIQYAFPDNEGHVSVRYAAANNLSVIGATKEDKQRISEILQETWESADDWFVSE [P0ABR1] | 3.596 ± 0.025 |  | 2.28 | 2.08 ± 0.25 |  | 0.937 ± 0.5 |  |  |  |  | 0.859 | 0.715 |
| MKADNPFDLLLPAAMAKVAEEAGVYKATKHPLKTFYLAITAGVFISIAFVFYITATTGTGTMPFGMAKLVGGICFSLGLILCVVCGADLFTSTVLIVVAKASGRITWGQLAKNWLNVYFGNLVGALLFVLLMWLSGEYMTANGQWGLNVLQTADHKVHHTFIEAVCLGILANLMVCLAVWMSYSGRSLMDKAFIMVLPVAMFVASGFEHSIANMFMIPMGIVIRDFASPEFWTAVGSAPENFSHLTVMNFITDNLIPVTIGNIIGGGLLVGLTYWVIYLRENDHH [P0AC23] | 6.43 ± 0.36 | 7.27 ± 0.55 |  | 5.87 ± 0.32 | 6.66 ± 1.2 | 3.67 |  |  | 6.07 ± 0.59 | 6.402 ± 0.033 |  | 11.5 ± 0.42 |
| MKKVAAFVALSLLMAGCVSNDKIAVTPEQLQHHRFVLESVNGKPVTSDKNPPEISFGEKMMISGSMCNRFSGEGKLSNGELTAKGLAMTRMMCANPQLNELDNTISEMLKEGAQVDLTANQLTLATAKQTLTYKLADLMN | 6.45 ± 1.1 | 6.13 ± 0.01 | 6.52 ± 1.3 |  | 6.01 ± 0.55 | 2.95 ± 0.68 | 5.47 ± 1.1 | 11 ± 0.29 | 6.111 ± 0.014 | 6 ± 0.54 | 12.9 ± 0.28 | 11.5 ± 1.1 |
| MFGKGGLGNLMKQAQQMQEKMQKMQEEIAQLEVTGESGAGLVKVTINGAHNCRRVEIDPSLLEDDKEMLEDLVAAAFNDAARRIEETQKEKMASVSSGMQLPPGFKMPF [P0A8B5] | 6.29 ± 0.61 | 4.38 ± 0.044 | 3.59 ± 0.49 | 4.57 ± 0.16 | 3.28 ± 0.64 | 2.68 ± 0.07 | 4.44 ± 0.19 | 7.56 ± 0.1 | 3.02 ± 0.071 | 4.24 ± 0.68 | 9.46 ± 0.42 | 5.05 ± 0.83 |
